From paper PMC4756836 (Nucleic Acids Research, 2015)

Target: the molecule itself
Assay: crystal structure

B1: yeast mitochondrial threonyl-tRNA synthetase MST1 (enzyme, S. cerevisiae)
chain: QDLFMTDPLSPGSMFFLPNGAKIFNKLIEFMKLQQKFKFGFNEVVTPLIYKKTLWEKSGHWENYADDMFKVETTDEEKEEYGLKPMNCPGHCLIFGKKDRSYNELPLRFSDFSPLHRNEASGALSGLTRLRKFHQDDGHIFCTPSQVKSEIFNSLKLIDIVYNKIFPFVKGGSGAESNYFINFSTRPDHFIGDLKVWNHAEQVLKEILEESGKPWKLNPGDGAFYGPKLDIMVTDHLRKTHQVATIQLDFQLPERFDLKFKDQDNSYKRPIMIHRATFGSIERFMALLIDSNEGRWPFWLNPYQAVIIPVNTKNVQQLDMCTALQKKLRNELEADDMEPVPLNDWHFNVDLDIRNEPVGYRIKSAILKNYSYLIIVGDEEVQLQKYNIRERDNRKSFEKLTMSQIWEKFIELEKNYK
- stoichiometry N: 2
